Measured values published in publication doi:10.1101/2020.08.21.260323.

What was measured:
[1] = molecular target: SpaKC, class III lanthipeptide synthetase (LanKC) homolog from S. sparsogenes ATCC 25498 (S. sparsogenes ATCC 25498); assay: MST
[2] = molecular target: SpaKC-SpaF complex (S. sparsogenes ATCC 25498); assay: MST
[3] = molecular target: SpaF, FMN-dependent cysteine decarboxylase of the spa gene cluster (S. sparsogenes ATCC 25498); assay: crystal structure

Kd [1] [µM] | Kd [2] [µM] | stoichiometry N [3] | Substance
0.217 | 0.094 |  | SpaA precursor peptide
0.182 |  | 12 | SpaF, FMN-dependent cysteine decarboxylase of the spa gene cluster (enzyme)
0.275 |  |  | SpaA leader peptide
2.27 |  |  | TvaF, cysteine decarboxylase from thioviridamide biosynthesis (enzyme)
